{"source": "patent US5847088A", "about": "“Antibodies specific for platelet-activating factor acetylhydrolase” (ICOS Corporation, priority 1995, dated 1998)", "molecules": {"B1": {"name": "PAF-AH: Recombinant human plasma platelet-activating factor acetylhydrolase (beginning at Ile42 of SEQ ID NO:8) expressed in E. coli (protein, UniProt Q13093 22-441, looked up)", "Platelet-activating factor …": "FDWQYINPVAHMKSSAWVNKIQVLMAAASFGQTKIPRGNGPYSVGCTDLMFDHTNKGTFLRLYYPSQDNDRLDTLWIPNKEYFWGLSKFLGTHWLMGNILRLLFGSMTTPANWNSPLRPGEKYPLVVFSHGLGAFRTLYSAIGIDLASHGFIVAAVEHRDRSASATYYFKDQSAAEIGDKSWLYLRTLKQEEETHIRNEQVRQRAKECSQALSLILDIDHGKPVKNALDLKFDMEQLKDSIDREKIAVIGHSFGGATVIQTLSEDQRFRCGIALDAWMFPLGDEVYSRIPQPLFFINSEYFQYPANIIKMKKCYSPDKERKMITIRGSVHQNFADFTFATGKIIGHMLKLKGDIDSNVAIDLSNKASLAFLQKHLGLHKDFDQWDCLIEGDDENLIPGTNINTTNQHIMLQNSSGIEKYN"}}, "key": {"[1]": {"tested_on": "zymosan A-induced edema", "experiment": "Rat foot edema model, zymosan A-induced", "type": "in vivo", "conditions": "2000 U IV 15 minutes before zymosan A, 2 hours", "experimental": "Six to eight-week-old female Long Evans rats (Charles River, Wilmington, Mass.), weighing 180-200 grams, were used for all experiments. Prior to experimental manipulations, animals were anesthetized with a mixture of the anesthetics Ketaset (Fort Dodge Laboratories, Fort Dodge, Iowa), Rompun (Miles, Shawnee Mission, Kans.), and Ace Promazine (Aveco, Fort Dodge, Iowa) administered subcutaneously at approximately 2.5 mg Ketaset, 1.6 mg Rompun, 0.2 mg Ace Promazine per animal per dose. Edema was induced in the foot by administration of either PAF or zymosan as follows. […] Animals received 50 μl PAF (final dose of 0.96 nmoles) subcutaneously between the hind foot pads, and edema was assessed after 1 hour and again after 2 hours in some experiments. […] Animals received 50 μl of zymosan (final dose of 500 μg) subcutaneously between the hind foot pads and edema was assessed after 2 hours.\nEdema was quantitated by measuring the foot volume immediately prior to administration of PAF or zymosan and at indicated time point post-challenge with PAF or zymosan. Edema is expressed as the increase in foot volume in milliliters. […]\nRats (N=4 per group) were pretreated IV with either PAF-AH (2000 U in 300 μl carrier) or carrier alone. Fifteen minutes after pretreatment, groups received either PAF or zymosan A, and foot volume was assessed after 1 and 2 hours, respectively."}, "[2]": {"tested_on": "PAF-induced foot edema", "experiment": "Rat foot edema model, PAF-induced", "type": "in vivo", "experimental": "Six to eight-week-old female Long Evans rats (Charles River, Wilmington, Mass.), weighing 180-200 grams, were used for all experiments. Prior to experimental manipulations, animals were anesthetized with a mixture of the anesthetics Ketaset (Fort Dodge Laboratories, Fort Dodge, Iowa), Rompun (Miles, Shawnee Mission, Kans.), and Ace Promazine (Aveco, Fort Dodge, Iowa) administered subcutaneously at approximately 2.5 mg Ketaset, 1.6 mg Rompun, 0.2 mg Ace Promazine per animal per dose. Edema was induced in the foot by administration of either PAF or zymosan as follows. PAF (Sigma #P-1402) was freshly prepared for each experiment from a 19.1 mM stock solution stored in chloroform/methanol (9:1) at -20° C. Required volumes were dried down under N2, diluted 1:1000 in a buffer containing 150 mM NaCl, 10 mM Tris pH 7.5, and 0.25% BSA, and sonicated for five minutes. Animals received 50 μl PAF (final dose of 0.96 nmoles) subcutaneously between the hind foot pads, and edema was assessed after 1 hour and again after 2 hours in some experiments. Zymosan A (Sigma #A-8800) was freshly prepared for each experiment as a suspension of 10 mg/ml in PBS. Animals received 50 μl of zymosan (final dose of 500 μg) subcutaneously between the hind foot pads and edema was assessed after 2 hours.\nEdema was quantitated by measuring the foot volume immediately prior to administration of PAF or zymosan and at indicated time point post-challenge with PAF or zymosan. Edema is expressed as the increase in foot volume in milliliters. Volume displacement measurements were made on anesthetized animals using a plethysmometer (UGO Basile, model #7150) which measures the displaced water volume of the immersed foot. […] Repeated measurements of the same foot using this technique indicate the precision to be within 5%.\nPAF-AH was injected locally between the foot pads, or systematically by IV injection in the tail vein. For local administration rats received 100 μl PAF-AH (4000-6000 U/ml) delivered subcutaneously between the right hind foot pads. Left feet served as controls by administration of 100 μl carrier (buffered salt solution). For systemic administration of PAF-AH, rats received the indicated units of PAF-AH in 300 μl of carrier administered IV in the tail vein. Controls received the appropriate volume of carrier IV in the tail vein."}, "[3]": {"experiment": "Plasma PAF-AH activity in rats of the NEC experiments", "type": "in vivo, rat", "experimental": "The plasma PAF-AH activities were also determined in the rats utilized in the experiment described above. PAF-AH activity was determined as follows. Prior to the tail vein injection, blood samples were obtained. Subsequently blood samples were obtained from the vena cava just prior to the injection of PAF and at the time of sacrifice. Approximately 50 μl of blood was collected in heparinized capillaries. The plasma was obtained following centrifugation (980×g for 5 minutes). The enzyme was assayed as previously described by Yasuda and Johnston, Endocrinology, 130:708-716 (1992).\n(§1) In order to determine if the protection against NEC in rats was dose dependent, animals were treated with increasing doses of PAF-AH 15 minutes prior to PAF administration. Initially, PAF-AH, ranging from 25.5 to 25,500 units were administered into the tail vein of rats. PAF (0.4 μg in 0.2 ml of BSA-saline) was subsequently injected into the abdominal aorta 15 minutes after the administration of PAF-AH. The small intestine was removed and examined for NEC development 2 hours after PAF administration. Plasma PAF-AH activity was determined prior to the exogenous administration of the enzyme, and 15 minutes and 21/4 hours after PAF-AH administration. The results are the mean of 2-5 animals in each group."}, "[4]": {"tested_on": "PAF-induced necrotizing enterocolitis", "experiment": "Rat model of PAF-induced necrotizing enterocolitis (NEC)", "type": "in vivo", "experimental": "The small intestines were removed after 2 hours from the ligament of Trietz to the cecum, thoroughly washed with cold saline and examined grossly. Samples were obtained from microscopic examination from the upper, middle and lower portions of the small intestine. The tissues were fixed in buffered formalin and the sample processed for microscopic examination by staining with hematoxylin and eosin. The experiment was repeated three times.\nas §1\nIn order to determine the length of time exogenous PAF-AH afforded protection against development of NEC, rats were injected once with a fixed amount of the enzyme via the tail vein and subsequently challenged with PAF at various time points. PAF-AH (8,500 units in 0.3 ml) or vehicle alone was administered into the tail vein of rats, and PAF (0.36 μg in 0.2 ml of BSA-saline) was injected into the abdominal aorta at the various times after the enzyme administration. The small intestines were removed 2 hours after the PAF injection for gross and histological examinations in order to evaluate for NEC development. Plasma PAF-AH activities were determined at various times after enzyme administration and two hours after PAF administration. The mean value±standard error for enzyme activity was determined for each group.\nIn order to determine if administration of PAF-AH was capable of reversing development of NEC induced by PAF injection, 25,500 units of enzyme was administered via injection into the vena cava two minutes following PAF administration (0.4 μg)."}, "[5]": {"conditions": "25,500 units IV, 21/4 hours after injection"}}, "data": [{"molecule": "B1", "values": [{"measurement": "effect on zymosan induced edema", "setting": "[1]", "result": "failed to block"}, {"measurement": "mean increase in volume (foot edema)", "setting": "[2]; 2000 U IV 15 minutes before PAF, 1 hour, ± SEM (FIG. 6)", "result": "0.08 ± 0.02", "unit": "mL"}, {"measurement": "mean volume increase (foot edema)", "setting": "[2]; 2000 U IV 15 minutes prior to PAF, two hours after challenge, ± SEM", "result": 0.10, "unit": "mL"}, {"measurement": "ID50", "setting": "[2]; IV 15 minutes prior to PAF, edema after 1 hour", "result": "40-80 U per rat"}, {"measurement": "IV doses found to dramatically reduce PAF mediated inflammation", "setting": "[2]; IV dosing studies", "result": "160-2000 U/rat"}, {"measurement": "PAF-induced edema, PAF-AH versus PAF antagonists", "setting": "[2]; PAF-AH 2000 U IV, CV3988 or Alprazolam 2 mg IP (FIG. 10)", "result": "reduction in PAF-induced edema beyond that afforded by the established PAF antagonists"}, {"measurement": "plasma concentration predicted to block PAF-elicited edema", "setting": "[2]; calculated from plasma volume of 180-200 gram rats", "result": "25-40 U/ml"}, {"measurement": "increase in foot volume", "setting": "[2]; local subcutaneous 100 μl PAF-AH (4000-6000 U/ml), immediate PAF challenge, 1 hour post-challenge, mean ± SEM", "result": 0.08, "unit": "mL"}, {"measurement": "duration of protection from PAF induced edema", "setting": "[2]; single 2000 U IV dose", "result": "at least 24 hours"}, {"measurement": "plasma PAF-AH activity after 15 minutes", "setting": "[3]; 2040 units IV", "result": "363 units per ml of plasma"}, {"measurement": "increase of plasma PAF-AH activity over basal levels", "setting": "[3]; 2040 units IV, 15 minutes", "result": "five-fold increase over basal levels"}, {"measurement": "plasma PAF-AH activity at time of sacrifice, groups 2 and 4", "setting": "[3]; 25,500 units IV, 21/4 hours after PAF-AH injection", "result": "1855±257", "unit": "units"}, {"measurement": "plasma PAF-AH activity at time of sacrifice, Group 2", "setting": "[3]; [5]", "result": "1771±308"}, {"measurement": "plasma PAF-AH activity at time of sacrifice, Group 4", "setting": "[3]; [5]", "result": "1939±478"}, {"measurement": "plasma PAF-AH activity after 15 minutes, group 2", "setting": "[3]; 25,500 units IV, BSA-saline group", "result": "2249±341 units (1 unit equals 1 nmoles×min^-1 ×ml^-1 plasma)"}, {"measurement": "plasma PAF-AH activity after 15 minutes, group 4", "setting": "[3]; 25,500 units IV, PAF group", "result": "2494±623 units (1 unit equals 1 nmoles×min^-1 ×ml^-1 plasma)"}, {"measurement": "resultant plasma enzyme activity", "setting": "[3]; less than 1,020 total units administered", "result": "≤ 160"}, {"measurement": "NEC development, PAF challenge within the first eight hours after injection", "setting": "[4]; 8,500 units IV once", "result": "none of the rats developed NEC"}, {"measurement": "animals developing NEC, PAF challenge at 24 and 48 hours after injection", "setting": "[4]; 8,500 units IV once", "result": 100, "unit": "%"}, {"measurement": "protection against NEC", "setting": "[4]; 25,500 units IV followed by PAF injection", "result": "completely protected"}, {"measurement": "gross findings of bowel, PAF-AH in the absence of PAF", "setting": "[4]; 25,500 units IV, no PAF", "result": "no effect on the gross findings"}, {"measurement": "NEC development, enzyme given 15 minutes after PAF", "setting": "[4]; 25,500 units into vena cava", "result": "all animals developed NEC"}, {"measurement": "NEC development, enzyme given two minutes following PAF", "setting": "[4]; 25,500 units into vena cava, PAF 0.4 μg", "result": "None of the animals developed NEC"}, {"measurement": "gross findings of bowel", "setting": "[4]; 25,500 units via tail vein 15 minutes prior to PAF into aorta", "result": "the bowel appeared to be normal"}, {"measurement": "lowest protective amount of enzyme against NEC", "setting": "[4]; IV 15 minutes prior to PAF 0.4 μg", "result": 2040, "unit": "units"}, {"measurement": "NEC development at low doses", "setting": "[4]; less than 2,000 units of the enzyme", "result": "developed NEC"}]}]}
